# Test results taken from paper PMC8410055.
# Target: SARS-CoV-2 spike protein expressed on transfected HEK293T cells (UniProt P0DTC2)
# Test: flow cytometry on cells
substance,measurement,value
L-SIGN/Fc: extracellular domain of L-SIGN (amino acids 78–399) fused to the human IgG2 Fc domain (from UniProt Q9H2X3) EPN>QPD,response (% Fc binding (positive population)),1.58
